Data on 1 molecule can be found in patent publication US12435158.

Holding throughout (assay): SPR Biacore 8k, antibody captured
Assay [1] deals with lambda Bence Jones protein Lam788a.
The target of assay [2] is lambda free light chain Sigma.
The target of assay [3] is lambda Bence Jones protein Lam885.
Assay [4] addresses lambda Bence Jones protein Lam134c.
Assay [5] addresses lambda free light chain MyBio.
Assay [6] has as its target lambda Bence Jones protein Lam893c.

B1: 10B3-VL1 (antibody, human IgG1, kappa, V domains shown)
VH: EVQLVESGGGLVKPGGSLRLSCAASGFTFSSYSMNWVRQAPGKGLEWVSFISSNRNYIYYADSVKGRFTISRDNAKNSLYLQMNSLRAEDTAVYYCASLANWGTYFDYWGQGTLVTVSS
VL: DIQMTQSPSSLSASVGDRVTITCRASQGISSWLAWYQQKPEKAPKSLIYAASSLQSGVPSRFSGSGSGTDFTLTISSLQPEDFATYYCRQYNSYPLTFGGGTKVEIRR
As for B1, the equilibrium dissociation constant (Kd) in assay [1] was found to be 0.11 nM; in assay [2], 0.522 nM; in assay [3] it was 0.0707 nM; in assay [4] it was 0.0453 nM; in assay [5], 0.0437 nM; in assay [6], 0.0401 nM.
